The record followed here is the DeepSol protein solubility set.

The data set in a line: soluble on expression in E. coli; label from the status in PepcDB or PDB records.
Turning to “MGNICIGGPRMSQQVYSPERADTPQRNALREQTEADIEQNSESMRLQQKIDDLKPYVSNATGPMKAYGQAAMDRASGKKTYVSFAELDAEHLDAMVDVENQRNPDLNLRYFKHHKEFIQALESDGPSSFRAIYPLTKPRTGQAAKHHVMADVRLTPCEPPSIVITEPGVIVGKRNKQLHRHNQTLEDLSESGVQLSQVAIIETQAQKTPDDCVMYCLNYAIKAHKNADKFDDIHHGLQRGTFVNRINGRRVQDADHCGHF”, the “soluble on expression in E. coli” value is “not soluble”. Take “MGNNVVVLGTQWGDEGKGKIVDLLTERAKYVVRYQGGHNAGHTLVINGEKTVLHLIPSGILRENVTSIIGNGVVLSPAALMKEMKELEDRGIPVRERLLLSEACPLILDYHVALDNAREKARGAKAIGTTGRGIGPAYEDKVARRGLRVGDLFDKETFAEKLKEVMEYHNFQLVNYYKAEAVDYQKVLDDTMAVADILTSMVVDVSDLLDQARQRGDFVMFEGAQGTLLDIDHGTYPYVTSSNTTAGGVATGSGLGPRYVDYVLGILKAYSTRVGAGPFPTELFDETGEFLCKQGNEFGATTGRRRRTGWLDTVAVRRAVQLNSLSGFCLTKLDVLDGLKEVKLCVAYRMPDGREVTTTPLAADDWKGVEPIYETMPGWSESTFGVKDRSGLPQAALNYIKRIEELTGVPIDIISTGPDRTETMILRDPFDA”: the “soluble on expression in E. coli” value is given as “soluble”. Regarding “MGNQYVKPERTGNSPYTRSGVPPPALVKTGDKPLHRVNDRMSLELHMADERVRAAGLSPAEREWRKKWVHDQHLHADEPVVVDAVHRQLNPIRTAYRLPWDKFYLHYLKPTFGVYYGTAIRVTAPKLLMAFVVVQTAYYYWKYEVKDWTHLRGLESMPQKEVIASAPAIEEKFPGLMDKGLANPSKDDYYTPTFNKRTAYLDVGETKRPW”, the “soluble on expression in E. coli” value is given as “not soluble”. As for “MGPTPHIAVIGGGSTGAGIARDLAMRGLDVTLVEQGNLTHGTTGRMHGLLHSGGRYAVSDQASATECIEENRVLRDIASHCVEMTGGLFVKRPEDSEEYFQKKLNGCEECGIPAEVVSGEEARAMEPHLAKDIDKAISVPDGAIDPFRLVVANAASAQEHGARIETHTKVTDLLVESGEVVGIEVEHDSGPGKRVHGTEGGTEQIRADYVVNATGAWAGRIGDMAGLDIEVRPSKGVMTIMNIRQVDTVINRCRPKGDADIVVPHETTAILGTTDEEVEDPEDYPEEQWEVDMMIDTLSELIPMLDEARTIRSFWGVRPLYEPPDVGSDDPTDITRDFFLLDHDERDDLPGMTSIVGGKFTTYRMMGEQIADHVCGKFGIDADCRTADEPLPGSEDFSVLRDYMDEFGLRSPIGRRSVERLGSRADDVLKTDGPNPTVCACEGVTRAEIQDAIGGSGSDLNAVRIRTRASMGNCQGGFCSHRMASELHSEYDEPVVREAWDELLQERWKGQRHALWGEQLSQAALNYALHATTQNRDQDPADGEPVDFSAFDSGRGQTGGSVDSADVAADGGTNGYLEHHHHHH”, the “soluble on expression in E. coli” value is “not soluble”. On to “MGQEVSLLAVKTEPLNSSETTATTGDGALDTFTGSVITSSGYSPRSAHQYSPQLYPSKPYPHILSTPAAQTMSAYAGQTQYSGMQQPAVYTAYSQTGQPYSLPTYDLGVMLPAIKTESGLSQTQSPLQSGCLSYSPGFSTPQPGQTPYSYQMPGSSFAPSSTIYANNSVSNSTNFSGSQQDYPSYTAFGQNQYAQYYSASTYGAYMTSNNTADGTPSSTSTYQLQESLPGLTNQPGEFDTMQSPSTPIKDLDERTCRSSGSKSRGRGRKNNPSPPPDSDLERVFVWDLDETIIVFHSLLTGSYAQKYGKDPPMAVTLGLRMEEMIFNLADTHLFFNDLEECDQVHIDDVSSDDNGQDLSTYSFATDGFHAAASSANLCLPTGVRGGVDWMRKLAFRYRRVKELYNTYKNNVAGLLGPAKRDAWLQLRAEIEGLTDSWLTNALKSLSIISTRSNCINVLVTTTQLIPALAKVLLYSLGGAFPIENIYSATKIGKESCFERIMQRFGRKVVYVVIGDGVEEEQAAKKHNMPFWRISSHSDLLALHQALELEYL”, for which the “soluble on expression in E. coli” value is on record as “not soluble”. Turning to “MGQFPRTVVHAAGTTEITTKPERVVVLDTGELDSVLSLGITPVGMTTTKGANPVPSYLADKVKDVERVGTINELNIEAIAALKPDLIIGSQLRADKLYPQLSDIAPTVFSIRPGSPWKENFLLVGEALGMEKEAEEKLNEYADRVAELKNNVPQNTEVSLVRFMPNKLRLYGNKSLIGVVLADAGLARPEKQNVDDLAVEISPENIDQAAGSVIFYTSYGKPDATGETAVVEGPAWKNLEAVAAGKAHRVNDDVWFLGLGPTGAMEIVSDLHDYLLEHHHHHH”, the “soluble on expression in E. coli” value is recorded as “soluble”.

As for “MGQGANILGFGGDRSFNLAGNRAGFALGSNNGALVGGQRVGVDGGIGGGREGVEMGSQVQFGNEPNPGHPAGQFGSFMDNVKNFFSFLGRGMPMPPQQPPPSPPFSLGVTRPPTLIGTERSESENGGRHRPRPWFPEGEQIPEVTGEMRPKEGEAGISSSSSSSSETEFIGPNNGEIPRKSVEFSIDKEPREEFTEDLFTAQTSRPRELPGLIEFA”, the “soluble on expression in E. coli” value is on record as “not soluble”.

As for “MGQMADRLAALVVTAFSPDGQIEGSYGAAAGANIRFNGNSYRHYTERGLGHQLSRMAVLVWIAHQRGHDATVAEVTGQPVSRRQETWDARRRRFREEQAETESEGMSTGGLVYFRNTGMRDWHIVIRDGTLSKLDEPEFVKEFLSGYAALSLDYRHKMTKLRTKHYGPDIWMKK”, the “soluble on expression in E. coli” value is reported as “not soluble”.

Consider “MGQPPAEEAEQPGALAREFLAAMEPEPAPAPAPEEWLDILGNGLLRKKTLVPGPPGSSRPVKGQVVTVHLQTSLENGTRVQEEPELVFTLGDCDVIQALDLSVPLMDVGETAMVTADSKYCYGPQGSRSPYIPPHAALCLEVTLKTAVDLEHHHHHH”, for which the “soluble on expression in E. coli” value is “soluble”. Take “MGQTVNEDSMDVKKENQEKTPQSSTSSVQRDDFHWEEYLKETGSISAPSECFRQSQIPPVNDFKVGMKLEARDPRNATSVCIATVIGITGARLRLRLDGSDNRNDFWRLVDSPDIQPVGTCEKEGDLLQPPLGYQMNTSSWPMFLLKTLNGSEMASATLFKKEPPKPPLNNFKVGMKLEAIDKKNPYLICPATIGDVKGDEVHITFDGWSGAFDYWCKYDSRDIFPAGWCRLTGDVLQPPGTS”: the “soluble on expression in E. coli” value is listed as “soluble”. “MGRAMGDSFTFIFNPAADKGRAADKTALIERSLAHFEVASLETTRFAGHAAEIARAAAGEGSTLIACGGDGTLNEVVNAVAGQPVKVGVLPVGSANDFLKTFNPSAKEHEVRIRGFAGATSRKVDLGKVEFGGGESRYFVNSIGIGFTGRIASTVKSVKWLRGELSYAWALVSVLLGYSAVKMHITLDTVEGKIELDEPVFAFSVSNGRVEGGKFRIAPEADPFDGLLDVCILKAVSKWRVPGYVLKYLKGSQIHDPNVIYCKARSVEVFLSVSEAMHMDGEVIEKVGGAIAITAEPLAVEMLYEP”: the “soluble on expression in E. coli” value is “not soluble”. Regarding “MGRGIAQIIRHDEPTDEIVDKFYRQINNPVLANINLQWEGDGDSPIIYPCNPPDLFAEQPLVLFGKKPDARGGKLHITGIVAGGTHYQHTFDLNFEETGNPAIAQLWGRYRIKELMNLMVSGETKLGVEAVTDTALTYQMLSQYTAFVAVSDDVRVDSLQETVSVQVPVEMAEGISYLGIFGSAVSAAAPIMANMVLEHHHHHH”, the “soluble on expression in E. coli” value is recorded as “not soluble”. In the case of “MGRIYLKKAKSEEDLLKRGRPFTVEVDELKIPFCVSPVTNTFDNKKKVFLTFLGPVKQFHEAIHLCITSLYRPTPYNKYELTTNVDDLTCTPDIKNMKESYLATIKSESLNASTIDNFLSKKTSIEKLTLGMKVLDNFQEDSAIFRMKYFWFTYSLEHAPIVLSKFQGTHLWMTDANIKNEDIISFLNTWQNSECDRKIFEIKVSEGMNPLNPDIVYEDIDVSDWDPAERPKEFNFVSTFFPENFNKVYDCSTWMDIKRSGDGKIASICITSNAFKFLVWD”, the “soluble on expression in E. coli” value is given as “not soluble”.

As to “MGRKIVFFDIDGTLLDEQKQLPLSTIEAVRRLKQSGVYVAIATGRAPFMFEHVRKQLGIDSFVSFNGQYVVFEGNVLYKQPLRREKVRALTEEAHKNGHPLVFMDAEKMRASIGDHPHIHVSMASLKFAHPPVDPLYYENKDIYQALLFCRAEEEEPYVRNYPEFRFVRWHDVSTDVLPAGGSKAEGIRMMIEKLGIDKKDVYAFGDGLNDIEMLSFVGTGVAMGNAHEEVKRVADFVTKPVDKEGIWYGLKQLQLIR”, the “soluble on expression in E. coli” value is recorded as “soluble”. Consider “MGRLADTLDALSVRALSPDHRIQGQLHHRTKVDISFTSEDSYYEYKSEQAVAAQLSAVLNALIVGRNEGFCAAVREVTDLRLDDRPHWDARRRRFREERDGAPLEGQSAGGWLTVASVGLRDANATVKPGAFDELDASGFLIEVHSAIADLWKDQAMAMSYLRRTHFG”, for which the “soluble on expression in E. coli” value is given as “not soluble”. As for “MGRNRIKKVTERLPLPPNARRVEDPEMNMSREVVEDPGVPGTQDVTFAVAEVNGVETGRLPVANVVVTPAHEAVVRVGTKPGTEVPPVIDGSIWDAIAGCEAGGNWAINTGNGYYGGVQFDQGTWEANGGLRYAPRADLATREEQIAVAEVTRLRQGWGAWPVCAARAGAR”, the “soluble on expression in E. coli” value is “soluble”.

In the case of “MGRRVLLSFLGLGDYEYCYYTYEGKTSTYTRFIQTAVYELFRNDEPMDVVVFATKEAQDRNGQDRKKGDKLLEGIGTAFSRIAPEANVKIVEIESGQDEQANWRLFDRIMDEIKEGDTIYFDITHSFRSIPFVALIVLNYARLVKKADIGAIIYGWFEVLGRPIDVEQMPEEQRVAPIVNLTSMAKLLDWTNGVDQFLRTGDASIIQALTAKENSEVFRNPSLSQAVKDEVKELRELTKRLDQTEKAIRTCRSLQIDEEVQKFHEQLGRVRSASAEAIKPLVPLLDVMEKKYAMFDDDPIMNSWKAVRWCLDHGLIQQALTMLEENAVTAVCRVLGLDLRNEKARGDVHSAIEILLRDIPKEEWRVRSVERVEQIIDFLSPYKGDLKRFSTLKERRNDINHAGARPQPLKAEKFWPDAEQSFRELGAFFERMSALAKSMQTVKGNG”, the “soluble on expression in E. coli” value is on record as “not soluble”.

Regarding “MGRVIFMGKTGCGKTTLCQALNNLEIKYKKTQAIELYDNAIDTPGEYMENRGYYTALIVTAADADIIALVYDCTSEENYIAPGFASMFCKEVIGIITKINLAKDKSEIEVAEERLNLAGVSKIFKVDTVDDVGIKELFNYLNKFLEHHHHHH”, the “soluble on expression in E. coli” value is reported as “soluble”. In the case of “MGRYSVKRYKTKRRTRDLDLIYNDLSTKESVQKLLNQPLDETKPGLGQHYCIHCAKYMETAIALKTHLKGKVHKRRVKELRGVPYTQEVSDAAAGYNLNKFLNRVQEITQSVGPEKESNEALLKEHLDSTLANVKTTEPTLPWAAADAEANTAAVTEAESTASAST”, the “soluble on expression in E. coli” value is “soluble”. For “MGSAVIRVLSYNIRSMRDDTAALARVISACEPDLVLVQEAPRFFRWRKKLAPLASACGQVVLSGGATAAGPALLCSLRATVERTEDVLLPLTPGLHRRGFATAVVRFGRARLGVLSCHLSLQKNERYEQGGMLLDHLARLGTPHAIAGGDLNERPDGRTFKRLASELRDCWATAPWGAEYTSTPADPHQRIDAILATPGIEVLACGVPLGHPGVTEADLRAATDHLPVLAALRVPASLEHHHHHH”, the “soluble on expression in E. coli” value was “not soluble”. For “MGSDKIHHHHHHACILFVCFLYTNNEIGVTSSKLEADIRSSQKIKDDWTVDGSVSSTMAAYISYPQDLSDHSFSVYVNRPGLSFGYFFRGGGTLSGIQRGIVEFTVEGYNERAFISMNQQQVQQLEIDDGNTIQVVDIDRNKPFAIVLPINAGNITFYDVNRNTVEYWNNPL”, the “soluble on expression in E. coli” value is “not soluble”. Turning to “MGSDKIHHHHHHACSQKQPIQATVTPSDPVVGEEIFFSDSTSGARIWYWEFGNNETSTQRSGYHRFKQKGVYKIRLTVNGNLERYFDVRVKEKTNAEDLHLVHIIAPKEAIQGENIIFRGEGHDEQWRWEFGETGMIDSREKTALYAYTEPGEYEVLLNTENTRYPIRHRINILPYYSENDSTDVMVLIGLDIKEKLQNIADGKPFNVNYNYVVDKYFNNNPNTLVIVNNNKYNDFYSYCQGLHHIGRKETIIQNVIVETEDEESGYITQITVMQIEKKK”, the “soluble on expression in E. coli” value was “not soluble”.
